Values belong to the binder of their own block, whether it stands above or below them.
Columns and labels:
[1] = target: yeast-displayed human LIF (hLIF, Ser23 to Phe203) (human) (UniProt P15018); test: flow cytometry on cells; LIF displayed on yeast (EBY100), soluble Fc fusion titrated in PBS with 1 mg/ml BSA, Fc detected with fluorescent secondary antibody; apparent Kd by non-linear regression
[2] = target: yeast surface-displayed human LIF (Ser23 to Phe203) (human) (UniProt P15018); test: flow cytometry on cells; hLIF displayed on yeast, soluble Fc fusion titrated in PBS with 1 mg/ml BSA; bound Fc detected by fluorescent anti-Fc antibody; apparent Kd by non-linear regression
[3] = target: recombinant human LIF, histidine-tagged (hLIF-His) (human) (UniProt P15018)
[4] = target: recombinant human LIF, histidine-tagged (hLIF-His) (human) (UniProt P15018); test: Kinetic Exclusion Assay (KinExA); both partners soluble; hLIF-His constant (100 pM for eLIFR-Fc, 250 pM for hLIFR-Fc), LIFR-Fc serially diluted, 18 h, BPBS with 0.02% sodium azide; free LIF-His captured on LIFR-Fc-coated PMMA beads; apparent Kd, n-curve analysis

Kd [1]: 0.02 nM
B1: C-terminal eLIFR-Fc fusion containing a (Glycine)4Serine linker (Fc fusion)
chain: GGGGSDLKCVTNNLQVWNCSWKAPSGTGRGTDYEVCIENRSRSCYQLEKTSIKIPALSHGDYEITINSLHDFGSSTSKFTLNEQNVSLIPDTPEILNLSADFSTSTLYLKWNDRGSVFPHRSNVIWEIKVLRKESMELVKLVTHNTTLNGKDTLHHWSWASDMPLECAIHFVEIRCYIDNLHFSGLEEWSDWSPVKNISWIPDSQTKVFPQDKVVPVGSDITFCCVSQEKVLSALIGRTNCPLIHLDGENVAIKVRNVSASASSGTNVVFITEDDIFGTVIFAGYPPDTPQQLNCETHDLKEIICSWNPGRVTALVGPRATSYTLVESFSGKYVRLKRAEAPTNESYQLLFQMLPNQEIYNFTLNAHNPLGRSQSTILVNITEKVYPHTPTSFKVKDINSTAVKLSWHLPGNFAKINFLCEIEIKKSNSVQEQRNVTIKGVENSSYLVALDKLNPYTLYTFRIRCSTETFWKWSKWSNKKQHLTTEAS

Kd [2]: 0.35 nM
B2: full-length eLIFR-Fc (Fc fusion)
chain: QKKGAPHDLKCVTNNLQVWNCSWKAPSGTGRGTDYEVCIENRSRSCYQLEKTSIKIPALSHGDYEITINSLHDFGSSTSKFTLNEQNVSLIPDTPEILNLSADFSTSTLYLKWNDRGSVFPHRSNVIWEIKVLRKESMELVKLVTHNTTLNGKDTLHHWSWASDMPLECAIHFVEIRCYIDNLHFSGLEEWSDWSPVKNISWIPDSQTKVFPQDKVVPVGSDITFCCVSQEKVLSALIGRTNCPLIHLDGENVAIKVRNVSASASSGTNVVFITEDDIFGTVIFAGYPPDTPQQLNCETHDLKEIICSWNPGRVTALVGPRATSYTLVESFSGKYVRLKRAEAPTNESYQLLFQMLPNQEIYNFTLNAHNPLGRSQSTILVNITEKVYPHTPTSFKVKDINSTAVKLSWHLPGNFAKINFLCEIEIKKSNSVQEQRNVTIKGVENSSYLVALDKLNPYTLYTFRIRCSTETFWKWSKWSNKKQHLTTEASPSKGPDTWREWSSDGKNLIIYWKPLPINEANGKILSYNVSCSSDEETQSLSEIPDPQHKAEIRLDKNDYIISVVAKNSVGSSPPSKIASMEIPNDDLKIEQVVGMGKGILLTWHYDPNMTCDYVIKWCNSSRSEPCLMDWRKVPSNSTETVIESDEFRPGIRYNFFLYGCRNQGYQLLRSMIGYIEELAPIVAPNFTVEDTSADSILVKWEDIPVEELRGFLRGYLFYFGKGERDTSKMRVLESGRSDIKVKNITDISQKTLRIADLQGKTSYHLVLRAYTDGGVGPEKSMYVVTKENSVGLIIAILIPVAVAVIVGVVTSILCYRKREWIKETFYPDIPNPE

IC50 of inhibition of LIF (20 pM) signalling through LIFR/gp130 in HeLa STAT3 luciferase reporter cells [3]: 1.8 nM | Kd [4]: 1.1 nM
B3: hLIFR-Fc (wild-type human LIFR CBM I–Ig-like–CBM II fused to hIgG1 Fc) (Fc fusion)
chain: QKKGAPHDLKCVTNNLQVWNCSWKAPSGTGRGTDYEVCIENRSRSCYQLEKTSIKIPALSHGDYEITINSLHDFGSSTSKFTLNEQNVSLIPDTPEILNLSADFSTSTLYLKWNDRGSVFPHRSNVIWEIKVLRKESMELVKLVTHNTTLNGKDTLHHWSWASDMPLECAIHFVEIRCYIDNLHFSGLEEWSDWSPVKNISWIPDSQTKVFPQDKVILVGSDITFCCVSQEKVLSALIGHTNCPLIHLDGENVAIKIRNISVSASSGTNVVFTTEDNIFGTVIFAGYPPDTPQQLNCETHDLKEIICSWNPGRVTALVGPRATSYTLVESFSGKYVRLKRAEAPTNESYQLLFQMLPNQEIYNFTLNAHNPLGRSQSTILVNITEKVYPHTPTSFKVKDINSTAVKLSWHLPGNFAKINFLCEIEIKKSNSVQEQRNVTIKGVENSSYLVALDKLNPYTLYTFRIRCSTETFWKWSKWSNKKQHLTTEAS
